According to patent US20250009852A1, “DEPLETING EGFR AND HER2 OVERCOMES RESISTANCE TO EGFR INHIBITORS IN COLORECTAL CANCER” (Health Research, Inc., priority 2021, published 2025):

How the values were obtained:
HCT116 tumors = assay: Subcutaneous HCT116 tumors in SCID mice; type: in vivo, mouse; conditions: sc HCT116 tumors
Protocol: SCID mice (C.B.17 SCID) were bred by the Laboratory Animal Shared Resource at Roswell Park Comprehensive Cancer Center. Male mice at 7-8 weeks of age were used. All mouse experiments were approved by the Institutional Animal Care and Use Committee at Roswell Park Comprehensive Cancer Center under protocol 1022M. We established subcutaneous tumors by inoculating 1×10^6 HCT116 cells, 4×10^6 HT29 cells, or 2×10^6 SW48 cells to the flank of each mouse in 100 μl of serum free medium. Colon patient-derived xenograft (PDX) 14650 was established from a liver metastatic lesion in a patient treated at Roswell Park Comprehensive Cancer Center. Tumor fragments (˜20 mm^3) from donor mice were implanted into the flank of each mouse subcutaneously using a trocar. Orthotopic colon tumors in mice were established by inoculating HCT116 cells stably transfected with firefly luciferase (2×10^6 cells in 50 μl of 50% serum-free medium and 50% Matrigel) to the caecum wall of each mouse. Mice in each tumor model were randomized cage-wise into treatment groups using Research Randomizer (www.randomizer.org). Subcutaneous tumor volume was measured using length ×width^2÷2. Tumor volume was measured three times each week. Orthotopic tumor growth was monitored by bioluminescence weekly. Mice were given D-luciferin (150 mg/kg) by ip and anesthetized with isoflurane, and tumor burden was measured by bioluminescence using the IVIS Spectrum In Vivo Imaging System (PerkinElmer). Drug treatment was started when significant tumor growth was detected. EP (0.5 mg/kg) was administered to mice ip once daily. […] Aderbasib (60 mg/kg) was administered to mice by gavage once daily. 5-FU (35 mg/kg) was administered to mice ip twice weekly (Monday and Thursday). EP, PEPD^G278D and 5-FU were administered to mice in PBS. Aderbasib was first dissolved in DMSO and then diluted by PBS (final 5% DMSO by volume). Each agent was administered to mice at 0.1 ml volume per 20 g body weight. When a mouse was given multiple agents on the same day, the agents were dosed at approximately 30 min intervals. The mice were closely monitored for sign of adverse effects and weighed three times each week. Mice were sacrificed 24-48 hours after the last treatment, at which point the tumors were promptly removed, snap frozen and stored at −80° C. for later analysis. Some tumors were fixed in 10% buffered formalin, paraffin embedded, cut at 4 μm, and stained with hematoxylin and eosin (H & E) for histological analysis.

[1] = system: HER3, IGF1R, MET, SRC, AKT, ERK, MEK, NRAS, HRAS, caspase 3; assay: Western blotting of tumor homogenates: other signaling proteins; type: in vivo, mouse
Protocol: To prepare whole cell lysates, cells were washed with PBS twice, mixed with 1× cell lysis buffer from Cell Signaling Technology supplemented with 2 mM PMSF and a protease inhibitor cocktail from Roche Applied Science, placed on ice for 10 min, sonicated at 0-4° C. to enhance cell lysis using a Branson Model 450 sonifier, and finally centrifuged at 13,000 g for 10 min at 4° C., and the supernatant fraction is collected as whole cell lysate. Tumor and samples were mixed with RIPA buffer (25 mM Tris-HCl, PH7.6, 150 mM NaCl, 1% Nonidet P-40, 1% sodium deoxycholate, and 0.1% SDS), which was supplemented with 2 mM PMSF, the protease inhibitor cocktail mentioned above, phosphatase inhibitor cocktail 2 and phosphatase inhibitor cocktail 3 from Sigma-Aldrich at 14.3 μl buffer per mg tissue, and homogenized in a Dounce homogenizer. The homogenates were cleared by centrifugation at 13,000 g for 15 min at 4° C.
Protein concentrations in all samples were measured using the BCA Assay Kit. For Western blotting, each sample was mixed with 4× loading dye, heated for 5 min at 95° C., and resolved by SDS-PAGE (8-12.5%). Proteins were transferred to polyvinylidene fluoride membrane, probed with specific antibodies, and detected using either Luminata Classico (Millipore) or Luminata Cresendo (Millipore). […] The beads were washed three times with IP buffer, suspended in 2× SDS loading buffer, boiled for 5 min, and analyzed by Western blotting.
SCID mice (C.B.17 SCID) were bred by the Laboratory Animal Shared Resource at Roswell Park Comprehensive Cancer Center. […] Subcutaneous tumor volume was measured using length ×width^2÷2. Tumor volume was measured three times each week. Orthotopic tumor growth was monitored by bioluminescence weekly. Mice were given D-luciferin (150 mg/kg) by ip and anesthetized with isoflurane, and tumor burden was measured by bioluminescence using the IVIS Spectrum In Vivo Imaging System (PerkinElmer). Drug treatment was started when significant tumor growth was detected. […] The mice were closely monitored for sign of adverse effects and weighed three times each week.

## COC(=O)N1CC2(CC2)C[C@H](C(=O)NO)[C@H]1C(=O)N1CC=C(c2ccccc2)CC1 [aderbasib]
HCT116 tumors; aderbasib alone 60 mg/kg by gavage daily
  tumor growth: ineffective
[1]; HCT116 and HT29 tumors, single agent
  expression or phosphorylation of the proteins analyzed in tumors: neither EP nor aderbasib had any effect

B1: PEPD^G278D: recombinant and enzymatically inactive mutant of human peptidase D (PEPD), with replacement of glycine 278 by aspartic acid (protein)
chain: AAATGPSFWLGNETLKVPLALFALNRQRLCERLRKNPAVQAGSIVVLQGGEETQRYCTDTGVLFLQESFFHWAFGVTEPGCYGVIDVDTGKSTLFVPRLPASHATWMGKIHSKEHFKEKYAVDDVQYVDEIASVLTSQKPSVLLTLRGVNTDSGSVCREASFDGISKFEVNNTILHPEIVESRVFKTDMELEVLRYTNKISSEAHREVMKAVKVGMKEYGLESLFEHYCYSRGGMRHSSYTCICGSGENSAVLHYGHAGAPNDRTIQNGDMCLFDMDGEYYSVASDITCSFPRNGKFTADQKAVYEAVLLSSRAVMGAMKPGDWWPDIDRLADRIHLEELAHMGILSGSVDAMVQAHLGAVFMPHGLGHFLGIDVHDVGGYPEGVERIDEPGLRSLRTARHLQPGMVLTVEPGIYFIDHLLDEALADPARASFLNREVLQRFRGFGGVRIEEDVVVIDSGIELLTCVPRTVEEIEACMAGCDKAFTPFSGPK
modifications: left off: small tags and cut ends
HCT116 tumors; EP plus PEPD^G278D 4 mg/kg ip three times weekly, or cetuximab 15 mg/kg ip twice weekly
  tumor growth: neither agent inhibited the growth
HCT116 tumors; EP plus PEPD^G278D 8 mg/kg ip thrice weekly
  tumor growth: did not inhibit tumor growth
[1]; SW48 tumors, 24 h after the final dose
  ERK phosphorylation in tumors: decreased ERK phosphorylation
